Laboratory results: publication PMC4889959 (Nucleic Acids Research, 2016)

B1: SLX4BTB wild type, yeast two-hybrid fusion [human] / SLX4BTB wild type, yeast two-hybrid fusion [human] (parent)
chain 1: QDKHPDRGGRTLLSLGLLVADFGAMVNNPHLSDVQFQTDSGEVLYAHKFVLYARCPLLIQYVNNEGFSAVEDGVLTQRVLLGDVSTEAARTFLHYLYTADTGLPPGLSSELSSLAHRFGVSELVHLCEQVPIATDS
chain 2: B1 chain 1

Variants of: B1
Experiment: yeast two-hybrid β-galactosidase assay
Conditions: with SLX4BTB wild type, ONPG as substrate, SLX4BTB-F708R-AD + SLX4BTB-BD, parent: 710, read off a plot

Row | Variant | response (OD420 reading)
1 | chain 1 QDKHPDRGGRTLLSLGLLVADFGAMVNNPHLSDVQFQTDSGEVLYAHKRVLYARCPLLIQYVNNEGFSAVEDGVLTQRVLLGDVSTEAARTFLHYLYTADTGLPPGLSSELSSLAHRFGVSELVHLCEQVPIATDS | 5.5

Same assay, conditions: with SLX4BTB wild type, ONPG as substrate, SLX4BTB-F681R-F708R-AD + SLX4BTB-BD, parent: 710, read off a plot

Row | Variant | response (OD420 reading)
2 | chain 1 QDKHPDRGGRTLLSLGLLVADRGAMVNNPHLSDVQFQTDSGEVLYAHKRVLYARCPLLIQYVNNEGFSAVEDGVLTQRVLLGDVSTEAARTFLHYLYTADTGLPPGLSSELSSLAHRFGVSELVHLCEQVPIATDS | 5
